The results in this text go back to US20240182563A1 (GENOME, published 2024).

Test [1] deals with T1, human CNTN4 antigen expressed on the cell membrane of 293FT cells (human) (UniProt Q8IWV2).
T1 sequence (looked up): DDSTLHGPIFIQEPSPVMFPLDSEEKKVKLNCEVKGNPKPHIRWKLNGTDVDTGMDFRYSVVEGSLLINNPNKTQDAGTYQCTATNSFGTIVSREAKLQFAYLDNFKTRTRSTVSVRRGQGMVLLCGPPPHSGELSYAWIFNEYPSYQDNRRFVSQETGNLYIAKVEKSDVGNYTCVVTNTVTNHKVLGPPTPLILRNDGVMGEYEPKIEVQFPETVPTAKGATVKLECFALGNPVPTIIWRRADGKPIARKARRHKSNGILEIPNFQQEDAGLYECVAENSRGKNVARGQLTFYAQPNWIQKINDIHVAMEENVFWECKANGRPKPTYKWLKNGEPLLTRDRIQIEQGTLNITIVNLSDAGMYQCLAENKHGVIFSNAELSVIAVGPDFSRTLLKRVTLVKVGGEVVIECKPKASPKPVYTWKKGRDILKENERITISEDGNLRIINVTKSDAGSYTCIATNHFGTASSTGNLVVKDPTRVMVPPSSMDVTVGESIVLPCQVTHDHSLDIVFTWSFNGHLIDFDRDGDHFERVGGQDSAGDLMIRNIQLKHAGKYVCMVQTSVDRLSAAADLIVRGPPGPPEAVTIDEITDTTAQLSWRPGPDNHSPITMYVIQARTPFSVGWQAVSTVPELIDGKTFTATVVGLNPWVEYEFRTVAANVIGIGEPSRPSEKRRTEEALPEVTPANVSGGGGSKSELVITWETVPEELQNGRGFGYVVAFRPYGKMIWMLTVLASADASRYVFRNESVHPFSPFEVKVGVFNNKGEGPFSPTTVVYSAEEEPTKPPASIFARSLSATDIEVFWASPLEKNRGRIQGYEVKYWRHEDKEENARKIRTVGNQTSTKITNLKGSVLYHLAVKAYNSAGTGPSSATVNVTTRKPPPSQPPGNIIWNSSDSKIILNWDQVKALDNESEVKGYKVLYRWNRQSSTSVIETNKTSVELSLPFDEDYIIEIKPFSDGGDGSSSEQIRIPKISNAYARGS
In words: FACS, 293FT cells transfected with human CNTN4, 40 ug/mL, anti-hCk-PE.

For the next test, the target named is T2, human CNTN4-rabbit Fc (human; rabbit, UniProt Q8IWV2 19-1000, limits assumed).
T2 construct: not shown: rabbit Fc
T2 sequence (looked up): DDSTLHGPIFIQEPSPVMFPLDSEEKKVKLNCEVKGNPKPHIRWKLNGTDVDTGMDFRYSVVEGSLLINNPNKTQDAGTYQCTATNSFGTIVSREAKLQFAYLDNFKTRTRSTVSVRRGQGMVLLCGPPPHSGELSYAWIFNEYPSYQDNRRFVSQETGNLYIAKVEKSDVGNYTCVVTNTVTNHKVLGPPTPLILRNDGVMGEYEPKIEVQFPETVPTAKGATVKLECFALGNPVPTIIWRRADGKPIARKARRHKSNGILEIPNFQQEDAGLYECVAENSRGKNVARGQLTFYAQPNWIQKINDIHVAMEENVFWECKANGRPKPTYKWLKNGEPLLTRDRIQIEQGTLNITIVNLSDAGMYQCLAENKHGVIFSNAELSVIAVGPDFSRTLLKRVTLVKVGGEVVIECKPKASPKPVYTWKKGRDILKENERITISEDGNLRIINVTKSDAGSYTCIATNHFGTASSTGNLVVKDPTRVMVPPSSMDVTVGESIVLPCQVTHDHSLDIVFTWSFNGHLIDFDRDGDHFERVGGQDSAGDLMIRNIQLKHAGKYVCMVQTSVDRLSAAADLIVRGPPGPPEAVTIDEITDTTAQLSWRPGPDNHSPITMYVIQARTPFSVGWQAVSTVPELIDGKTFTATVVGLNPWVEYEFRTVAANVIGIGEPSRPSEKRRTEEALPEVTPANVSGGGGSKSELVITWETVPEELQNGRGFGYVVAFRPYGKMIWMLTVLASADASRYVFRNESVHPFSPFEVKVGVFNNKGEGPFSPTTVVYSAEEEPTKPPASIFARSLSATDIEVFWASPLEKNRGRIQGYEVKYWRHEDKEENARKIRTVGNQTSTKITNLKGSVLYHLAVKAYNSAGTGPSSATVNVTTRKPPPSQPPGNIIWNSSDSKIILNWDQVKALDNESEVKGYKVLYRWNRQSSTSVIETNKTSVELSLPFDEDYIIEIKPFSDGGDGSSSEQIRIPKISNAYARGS
In words: ELISA, plate coated with antigen-rabbit Fc, anti-human kappa-HRP.

The target of another test is T3, mouse CNTN4-rabbit Fc (mouse; rabbit, UniProt Q69Z26 19-1000, limits assumed).
T3 construct: not shown: rabbit Fc
T3 sequence (looked up): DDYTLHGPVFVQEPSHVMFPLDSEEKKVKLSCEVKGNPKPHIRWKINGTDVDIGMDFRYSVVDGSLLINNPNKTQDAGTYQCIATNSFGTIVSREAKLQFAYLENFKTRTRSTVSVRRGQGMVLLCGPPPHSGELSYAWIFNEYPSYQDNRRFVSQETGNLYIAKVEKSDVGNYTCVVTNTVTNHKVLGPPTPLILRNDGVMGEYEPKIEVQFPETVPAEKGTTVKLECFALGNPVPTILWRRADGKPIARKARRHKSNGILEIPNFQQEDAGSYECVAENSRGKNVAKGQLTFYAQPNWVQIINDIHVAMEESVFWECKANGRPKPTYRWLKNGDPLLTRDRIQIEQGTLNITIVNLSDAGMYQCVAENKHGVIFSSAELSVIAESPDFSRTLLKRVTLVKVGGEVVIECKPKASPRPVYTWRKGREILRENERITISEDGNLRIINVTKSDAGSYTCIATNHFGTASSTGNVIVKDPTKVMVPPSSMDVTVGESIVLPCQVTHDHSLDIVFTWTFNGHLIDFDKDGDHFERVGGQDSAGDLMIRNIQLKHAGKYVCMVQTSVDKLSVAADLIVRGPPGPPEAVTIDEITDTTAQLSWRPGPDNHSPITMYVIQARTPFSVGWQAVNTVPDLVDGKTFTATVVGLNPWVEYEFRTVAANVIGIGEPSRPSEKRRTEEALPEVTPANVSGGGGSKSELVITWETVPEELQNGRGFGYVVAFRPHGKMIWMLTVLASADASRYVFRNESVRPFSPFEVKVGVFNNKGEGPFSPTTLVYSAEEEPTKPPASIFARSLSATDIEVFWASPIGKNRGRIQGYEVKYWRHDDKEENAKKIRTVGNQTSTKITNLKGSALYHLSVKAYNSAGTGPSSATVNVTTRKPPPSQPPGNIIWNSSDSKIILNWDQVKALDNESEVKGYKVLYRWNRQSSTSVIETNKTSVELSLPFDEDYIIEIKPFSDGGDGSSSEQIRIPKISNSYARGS
The description is as above.

B1: anti-CNTN4 scFv-hCk S137 (scFv, part only; not given: linker and kappa constant region, not shown: a dimerising Fc or GST)
scFv, part: ALTQPSSVSANPGETVKITCSGGSSYGWYQQKSPGSAPVTVIYDNTNRPSNIPSRFSGSKSGSTNTLTITGVQAEDEAVYYCGGYDGSTDAFGAGTTLTVLAVTLDESEGGLQTPGGALSLVCKASGFTFSSFNMFWVRQAPGKGLEYVAEISGGGGSTWYAPAVKGRATISRDNGQSTVRLQLNNLRAEDTGTYYCAKSADTWSYGAATIDAWGHGTEVIVSS
With B1, the Shift % in test [1] came out at 15.3%. Also, the figures for the 50% effective concentration (EC50) with human CNTN4-rabbit Fc and with mouse CNTN4-rabbit Fc were 0.41 nM and 0.52 nM, respectively.

B2: anti-CNTN4 scFv-hCk S132 (scFv, part only; not given: linker and kappa constant region, V domains shown, not shown: another chain or arm of the molecule; a dimerising Fc or GST; small tags and cut ends)
VL: ALTQPSSVSANPGETVKITCSGGGSSTYYGWYQQKSPGSAPVTVIYNNNNRPSDIPSRFSGSGSGSTGTLTITGVRAEDEAVYYCGGYDGSTDVFGAGTTLTVL
VH: AVTLDESGGGLQTPGGALSLVCKASGFTFSSFNMFWVRQAPGKGLEYVAEISGGGGSTWYAPAVKGRATISRDNGQSTVRLQLNNLRAEDTGTYYCAKSADTWSYGAATIDAWGHGTEVIVSS
Turning to B2, the Shift % in test [1] turned out to be 16.1%. Besides, the concentration for a half-maximal effect (EC50) with human CNTN4-rabbit Fc was found to be 1.16 nM; in the test with mouse CNTN4-rabbit Fc, 0.72 nM.

B3: anti-CNTN4 scFv-hCk S135 (scFv, part only; not given: linker and kappa constant region, V domains shown, not shown: another chain or arm of the molecule; a dimerising Fc or GST; small tags and cut ends)
VL: ALTQPSSVSANPGETVKITCSGGGSSSYYGWYQQKSPGSAPVTVIYYNNRPSDIPSRFSGSGSGSTGTLTITGVRAEDEAVYYCGGYDGSTDVFGAGTTLTVL
VH: AVTLDESEGGLQTPGGALSLVCKASGFTFSSFNMFWVRQAPGKGLEYVAEISGGGGSTWYAPAVKGRATISRDNGQSTVRLQLNNLRAEDTGTYYCAKSADTWSYGAATIDAWGHGTEVIVSS
With B3, the Shift % in test [1] is 18.2%. In addition, the EC50 in the test with human CNTN4-rabbit Fc was 1.06 nM; in the test with mouse CNTN4-rabbit Fc it was 0.71 nM.

B4: anti-CNTN4 scFv-hCk S138 (scFv, part only; not given: linker and kappa constant region, V domains shown, not shown: another chain or arm of the molecule; a dimerising Fc or GST; small tags and cut ends)
VL: ALTQPSSVSANPGETVNITCSGGGSYAGSYYYGWYQQKAPGSAPVTVIYDSTNRPSNIPSRFSGSLSGSTNTLTITGVRAEDEAVYYCGGYDGSTDVFGAGTTLTVL
VH: AVTLDESEGGLQTPGGALSLVCKASGFTFSSFNMFWVRQAPGKGLEYVAEISGGGGSTWYAPAVKGRATISRDNGQSTVRLQLNNLRAEDTGTYYCAKSADTWSYGAATIDAWGHGTEVIVSS
With B4, the Shift % in test [1] is 15.8%. The results for the EC50 with human CNTN4-rabbit Fc and with mouse CNTN4-rabbit Fc were 2.37 nM and 1.06 nM, respectively.

B5: anti-CNTN4 scFv-hCk S134 (scFv, part only; not given: linker and kappa constant region, V domains shown, not shown: another chain or arm of the molecule; a dimerising Fc or GST; small tags and cut ends)
VL: ALTQPSSVSANPGETVKITCSGGTYSYGNYYYGWYQQKSPGSAPVTVIYNNNNRPSDIPSRFSGSGSGSTGTLTITGVRAEDEAVYYCGGYDGSTDVFGAGTTLTVL
VH: AVTLDESEGGLQTPGGALSLVCKASGFTFSSFNMFWVRQAPGKGLEYVAEISGGGGSTWYAPAVKGRATISRDNGQSTVRLQLNNLRAEDTGTYYCAKSADTWSYGAATIDAWGHGTEVIVSS
B5: the Shift % in test [1] was 18%. For the same molecule, the EC50 with human CNTN4-rabbit Fc and with mouse CNTN4-rabbit Fc was 0.75 nM in each case.

B6: anti-CNTN4 scFv-hCk S131 (scFv, part only; not given: linker and kappa constant region, not shown: a dimerising Fc or GST)
scFv, part: ALTQPSSVSANLGGTVKITCSGGGSSYYGWYQQKSPGSAPVTLIYQNTNRPSNIPSRFSGSGSGSTGTLTITGVRAEDEAVYYCGGYDGSTDVFGAGTTLTVLAVTLDESEGGLQTPGGALSLVCKASGFTFSSFNMFWVRQAPGKGLEYVAEISGGGGSTWYAPAVKGRATISRDNGQSTVRLQLNNLRAEDTGTYYCAKSADTWSYGAATIDAWGHGTEVIVSS
Regarding B6, the Shift % in test [1] stood at 16.6%. Further, the EC50 was 0.74 nM with human CNTN4-rabbit Fc and 0.56 nM in the test with mouse CNTN4-rabbit Fc.
